Results from publication PMC12816604, “Structural basis of double-stranded RNA recognition by the J2 monoclonal antibody”.

Experiments:
Experiment in all cases: BLI; 100 mM KCl; BLI: 25 mM Tris-HCl pH 7.5, 2 mM MgCl2, KCl 100 mM (6-20 bp and mutants), 200 mM (30 bp) or 400 mM (40, 50 bp), 25 C; IgG immobilised on Protein A probes
Settings in all cases: protein: recombinant;recombinant; tags: His8 (C-term);; chain copies: 2;2; blunt
[1] = biological target: J2 IgG heavy chain (HC-TEV-His8) Y50F;J2 IgG light chain (Mus musculus;Mus musculus, UniProt ; ;, Y50F|)
Sequence of J2 IgG heavy chain (HC-TEV-His8) Y50F;J2 IgG light chain (chain, as listed by the source Y50F| | Y50F Y50F, chain 1 of 2): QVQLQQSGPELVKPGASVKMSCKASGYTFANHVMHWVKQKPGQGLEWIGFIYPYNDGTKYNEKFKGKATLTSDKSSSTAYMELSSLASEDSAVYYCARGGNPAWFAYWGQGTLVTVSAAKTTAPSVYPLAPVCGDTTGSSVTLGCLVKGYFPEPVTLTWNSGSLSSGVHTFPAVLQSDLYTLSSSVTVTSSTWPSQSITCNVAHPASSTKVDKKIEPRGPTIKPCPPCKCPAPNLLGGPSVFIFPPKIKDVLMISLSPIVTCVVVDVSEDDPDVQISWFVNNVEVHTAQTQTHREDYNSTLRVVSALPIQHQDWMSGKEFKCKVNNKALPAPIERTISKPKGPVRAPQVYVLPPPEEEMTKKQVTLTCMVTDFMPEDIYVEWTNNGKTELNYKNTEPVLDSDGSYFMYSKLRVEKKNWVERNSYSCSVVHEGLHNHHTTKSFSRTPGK
Sequence of J2 IgG heavy chain (HC-TEV-His8) Y50F;J2 IgG light chain (chain, as listed by the source Y50F| | Y50F Y50F, chain 2 of 2): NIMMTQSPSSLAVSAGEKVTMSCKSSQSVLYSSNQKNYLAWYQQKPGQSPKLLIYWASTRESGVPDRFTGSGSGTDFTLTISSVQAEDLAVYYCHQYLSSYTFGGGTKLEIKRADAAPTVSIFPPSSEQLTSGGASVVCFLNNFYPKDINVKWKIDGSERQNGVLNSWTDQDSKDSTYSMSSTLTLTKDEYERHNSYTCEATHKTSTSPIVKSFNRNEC

[2] = biological target: J2 IgG heavy chain (HC-TEV-His8) Y52F;J2 IgG light chain (Mus musculus;Mus musculus, UniProt ; ;, Y52F|)
Sequence of J2 IgG heavy chain (HC-TEV-His8) Y52F;J2 IgG light chain (chain, as listed by the source Y52F| | Y52F Y52F, chain 1 of 2): as the sequence (chain, as listed by the source Y50F| | Y50F Y50F, chain 1 of 2) above, with F50Y, Y52F counted along it
Sequence of J2 IgG heavy chain (HC-TEV-His8) Y52F;J2 IgG light chain (chain, as listed by the source Y52F| | Y52F Y52F, chain 2 of 2): as the sequence (chain, as listed by the source Y50F| | Y50F Y50F, chain 2 of 2) above

[3] = biological target: J2 IgG light chain Y31F;J2 IgG heavy chain (HC-TEV-His8) (Mus musculus;Mus musculus, UniProt ; ;, Y31F|)
Sequence of J2 IgG light chain Y31F;J2 IgG heavy chain (HC-TEV-His8) (chain, as listed by the source Y31F| | Y31F Y31F, chain 1 of 2): as the sequence (chain, as listed by the source Y50F| | Y50F Y50F, chain 2 of 2) above, with Y31F counted along it
Sequence of J2 IgG light chain Y31F;J2 IgG heavy chain (HC-TEV-His8) (chain, as listed by the source Y31F| | Y31F Y31F, chain 2 of 2): as the sequence (chain, as listed by the source Y50F| | Y50F Y50F, chain 1 of 2) above, with F50Y counted along it

[4] = biological target: J2 IgG heavy chain (HC-TEV-His8) Y54A;J2 IgG light chain (Mus musculus;Mus musculus, UniProt ; ;, Y54A|)
Sequence of J2 IgG heavy chain (HC-TEV-His8) Y54A;J2 IgG light chain (chain, as listed by the source Y54A| | Y54A Y54A, chain 1 of 2): as the sequence (chain, as listed by the source Y50F| | Y50F Y50F, chain 1 of 2) above, with F50Y, Y54A counted along it
Sequence of J2 IgG heavy chain (HC-TEV-His8) Y54A;J2 IgG light chain (chain, as listed by the source Y54A| | Y54A Y54A, chain 2 of 2): as the sequence (chain, as listed by the source Y50F| | Y50F Y50F, chain 2 of 2) above

[5] = biological target: J2 IgG heavy chain (HC-TEV-His8);J2 IgG light chain (Mus musculus;Mus musculus, UniProt ; ;, |)
Sequence of J2 IgG heavy chain (HC-TEV-His8);J2 IgG light chain (chain, as listed by the source |, chain 1 of 2): as the sequence (chain, as listed by the source Y50F| | Y50F Y50F, chain 1 of 2) above, with F50Y counted along it
Sequence of J2 IgG heavy chain (HC-TEV-His8);J2 IgG light chain (chain, as listed by the source |, chain 2 of 2): as the sequence (chain, as listed by the source Y50F| | Y50F Y50F, chain 2 of 2) above

[6] = biological target: J2 IgG light chain Y38F;J2 IgG heavy chain (HC-TEV-His8) (Mus musculus;Mus musculus, UniProt ; ;, Y38F|)
Sequence of J2 IgG light chain Y38F;J2 IgG heavy chain (HC-TEV-His8) (chain, as listed by the source Y38F| | Y38F Y38F, chain 1 of 2): as the sequence (chain, as listed by the source Y50F| | Y50F Y50F, chain 2 of 2) above, with Y38F counted along it
Sequence of J2 IgG light chain Y38F;J2 IgG heavy chain (HC-TEV-His8) (chain, as listed by the source Y38F| | Y38F Y38F, chain 2 of 2): as the sequence (chain, as listed by the source Y50F| | Y50F Y50F, chain 1 of 2) above, with F50Y counted along it

[7] = biological target: J2 IgG heavy chain (HC-TEV-His8) A30P;J2 IgG light chain (Mus musculus;Mus musculus, UniProt ; ;, A30P|)
Sequence of J2 IgG heavy chain (HC-TEV-His8) A30P;J2 IgG light chain (chain, as listed by the source A30P| | A30P A30P, chain 1 of 2): as the sequence (chain, as listed by the source Y50F| | Y50F Y50F, chain 1 of 2) above, with A30P, F50Y counted along it
Sequence of J2 IgG heavy chain (HC-TEV-His8) A30P;J2 IgG light chain (chain, as listed by the source A30P| | A30P A30P, chain 2 of 2): as the sequence (chain, as listed by the source Y50F| | Y50F Y50F, chain 2 of 2) above

[8] = biological target: J2 IgG heavy chain (HC-TEV-His8) Y54F;J2 IgG light chain (Mus musculus;Mus musculus, UniProt ; ;, Y54F|)
Sequence of J2 IgG heavy chain (HC-TEV-His8) Y54F;J2 IgG light chain (chain, as listed by the source Y54F| | Y54F Y54F, chain 1 of 2): as the sequence (chain, as listed by the source Y50F| | Y50F Y50F, chain 1 of 2) above, with F50Y, Y54F counted along it
Sequence of J2 IgG heavy chain (HC-TEV-His8) Y54F;J2 IgG light chain (chain, as listed by the source Y54F| | Y54F Y54F, chain 2 of 2): as the sequence (chain, as listed by the source Y50F| | Y50F Y50F, chain 2 of 2) above

[9] = biological target: J2 IgG light chain Y31A;J2 IgG heavy chain (HC-TEV-His8) (Mus musculus;Mus musculus, UniProt ; ;, Y31A|)
Sequence of J2 IgG light chain Y31A;J2 IgG heavy chain (HC-TEV-His8) (chain, as listed by the source Y31A| | Y31A Y31A, chain 1 of 2): as the sequence (chain, as listed by the source Y50F| | Y50F Y50F, chain 2 of 2) above, with Y31A counted along it
Sequence of J2 IgG light chain Y31A;J2 IgG heavy chain (HC-TEV-His8) (chain, as listed by the source Y31A| | Y31A Y31A, chain 2 of 2): as the sequence (chain, as listed by the source Y50F| | Y50F Y50F, chain 1 of 2) above, with F50Y counted along it

B1: 20-bp dsRNA (dsRNA)
RNA 1: GUUGUAAAGAAGGUCAAUAU
RNA 2: AUAUUGACCUUCUUUACAAC
[1]
  Kd: 430 ± 40 nM
[2]
  Kd: 220 nM
[3]
  Kd: 360 ± 60 nM
[4]
  Kd: 300 ± 30 nM
[5]
  Kd: 120 ± 10 nM
[6]
  Kd: 150 ± 20 nM
[7]
  Kd: 120 ± 20 nM
[8]
  Kd: 710 ± 170 nM
[9]
  Kd: 940 ± 560 nM
